Where two headings read alike, the source gives them in different places. Bridge positions count the residues as written; N and C are the ends. Square brackets hold non-standard residues; d marks the D form. Ends that are not written are not given here. Phe(4-amidino) = N=C(N)c1ccc(C[C@H](N)C(=O)O)cc1; Phe(4-NH2) = Nc1ccc(C[C@H](N)C(=O)O)cc1; His(Me) = mono-methylated histidine; NMeL = CN[C@@H](CC(C)C)C(=O)O; Pen = CC(C)(S)[C@H](N)C(=O)O; Sar = CNCC(=O)O
B1: Peptide No. 101 (peptide)
peptide: QRF[Pen]TGHFGGIYPCNGP-NH2
modifications: disulfide 4-14; N-terminus assumed
SMILES: CC[C@H](C)[C@@H]1NC(=O)CNC(=O)CNC(=O)[C@H](Cc2ccccc2)NC(=O)[C@H](Cc2c[nH]cn2)NC(=O)CNC(=O)[C@H]([C@@H](C)O)NC(=O)[C@@H](NC(=O)[C@H](Cc2ccccc2)NC(=O)[C@H](CCCNC(=N)N)NC(=O)[C@@H](N)CCC(N)=O)C(C)(C)SSC[C@@H](C(=O)N[C@@H](CC(N)=O)C(=O)NCC(=O)N2CCC[C@H]2C(N)=O)NC(=O)[C@@H]2CCCN2C(=O)[C@H](Cc2ccc(O)cc2)NC1=O
B2: Peptide No. 238 (peptide)
peptide: QRF[Pen]TGHFG[Sar]WYPCNGP-NH2
modifications: disulfide 4-14; N-terminus assumed
SMILES: C[C@@H](O)[C@@H]1NC(=O)[C@@H](NC(=O)[C@H](Cc2ccccc2)NC(=O)[C@H](CCCNC(=N)N)NC(=O)[C@@H](N)CCC(N)=O)C(C)(C)SSC[C@@H](C(=O)N[C@@H](CC(N)=O)C(=O)NCC(=O)N2CCC[C@H]2C(N)=O)NC(=O)[C@@H]2CCCN2C(=O)[C@H](Cc2ccc(O)cc2)NC(=O)[C@H](Cc2c[nH]c3ccccc23)NC(=O)CN(C)C(=O)CNC(=O)[C@H](Cc2ccccc2)NC(=O)[C@H](Cc2c[nH]cn2)NC(=O)CNC1=O
B3: Peptide No. 111 (peptide)
peptide: QRF[Pen]TGHF[Sar]GLYPCNGP-NH2
modifications: disulfide 4-14; N-terminus assumed
SMILES: CC(C)C[C@@H]1NC(=O)CNC(=O)CN(C)C(=O)[C@H](Cc2ccccc2)NC(=O)[C@H](Cc2c[nH]cn2)NC(=O)CNC(=O)[C@H]([C@@H](C)O)NC(=O)[C@@H](NC(=O)[C@H](Cc2ccccc2)NC(=O)[C@H](CCCNC(=N)N)NC(=O)[C@@H](N)CCC(N)=O)C(C)(C)SSC[C@@H](C(=O)N[C@@H](CC(N)=O)C(=O)NCC(=O)N2CCC[C@H]2C(N)=O)NC(=O)[C@@H]2CCCN2C(=O)[C@H](Cc2ccc(O)cc2)NC1=O
B4: Peptide No. 112 (peptide)
peptide: QRF[Pen]TGHFG[Sar]LYPCNGP-NH2
modifications: disulfide 4-14; N-terminus assumed
SMILES: CC(C)C[C@@H]1NC(=O)CN(C)C(=O)CNC(=O)[C@H](Cc2ccccc2)NC(=O)[C@H](Cc2c[nH]cn2)NC(=O)CNC(=O)[C@H]([C@@H](C)O)NC(=O)[C@@H](NC(=O)[C@H](Cc2ccccc2)NC(=O)[C@H](CCCNC(=N)N)NC(=O)[C@@H](N)CCC(N)=O)C(C)(C)SSC[C@@H](C(=O)N[C@@H](CC(N)=O)C(=O)NCC(=O)N2CCC[C@H]2C(N)=O)NC(=O)[C@@H]2CCCN2C(=O)[C@H](Cc2ccc(O)cc2)NC1=O
B5: Peptide No. 235 (peptide)
peptide: RF[Pen]TGHFG[Sar][NMeL]YPC-NH2
modifications: disulfide 3-13; N-terminus assumed
SMILES: CC(C)C[C@H]1C(=O)N[C@@H](Cc2ccc(O)cc2)C(=O)N2CCC[C@H]2C(=O)N[C@H](C(N)=O)CSSC(C)(C)[C@H](NC(=O)[C@H](Cc2ccccc2)NC(=O)[C@@H](N)CCCNC(=N)N)C(=O)N[C@@H]([C@@H](C)O)C(=O)NCC(=O)N[C@@H](Cc2c[nH]cn2)C(=O)N[C@@H](Cc2ccccc2)C(=O)NCC(=O)N(C)CC(=O)N1C
B6: Peptide No. 244 (peptide)
peptide: RF[Pen]TGHF[dE][Sar][NMeL]YPC-NH2
modifications: disulfide 3-13; N-terminus assumed
SMILES: CC(C)C[C@H]1C(=O)N[C@@H](Cc2ccc(O)cc2)C(=O)N2CCC[C@H]2C(=O)N[C@H](C(N)=O)CSSC(C)(C)[C@H](NC(=O)[C@H](Cc2ccccc2)NC(=O)[C@@H](N)CCCNC(=N)N)C(=O)N[C@@H]([C@@H](C)O)C(=O)NCC(=O)N[C@@H](Cc2c[nH]cn2)C(=O)N[C@@H](Cc2ccccc2)C(=O)N[C@H](CCC(=O)O)C(=O)N(C)CC(=O)N1C
B7: Peptide No. 255 (peptide)
peptide: RF[Pen]TGKFG[Sar][NMeL]YPC-NH2
modifications: disulfide 3-13; N-terminus assumed
SMILES: CC(C)C[C@H]1C(=O)N[C@@H](Cc2ccc(O)cc2)C(=O)N2CCC[C@H]2C(=O)N[C@H](C(N)=O)CSSC(C)(C)[C@H](NC(=O)[C@H](Cc2ccccc2)NC(=O)[C@@H](N)CCCNC(=N)N)C(=O)N[C@@H]([C@@H](C)O)C(=O)NCC(=O)N[C@@H](CCCCN)C(=O)N[C@@H](Cc2ccccc2)C(=O)NCC(=O)N(C)CC(=O)N1C
B8: Peptide No. 256 (peptide)
peptide: RF[Pen]TGRFG[Sar][NMeL]YPC-NH2
modifications: disulfide 3-13; N-terminus assumed
SMILES: CC(C)C[C@H]1C(=O)N[C@@H](Cc2ccc(O)cc2)C(=O)N2CCC[C@H]2C(=O)N[C@H](C(N)=O)CSSC(C)(C)[C@H](NC(=O)[C@H](Cc2ccccc2)NC(=O)[C@@H](N)CCCNC(=N)N)C(=O)N[C@@H]([C@@H](C)O)C(=O)NCC(=O)N[C@@H](CCCNC(=N)N)C(=O)N[C@@H](Cc2ccccc2)C(=O)NCC(=O)N(C)CC(=O)N1C
B9: Peptide No. 257 (peptide)
peptide: RF[Pen]TG[Phe(4-amidino)]FG[Sar][NMeL]YPC-NH2
modifications: disulfide 3-13; N-terminus assumed
SMILES: CC(C)C[C@H]1C(=O)N[C@@H](Cc2ccc(O)cc2)C(=O)N2CCC[C@H]2C(=O)N[C@H](C(N)=O)CSSC(C)(C)[C@H](NC(=O)[C@H](Cc2ccccc2)NC(=O)[C@@H](N)CCCNC(=N)N)C(=O)N[C@@H]([C@@H](C)O)C(=O)NCC(=O)N[C@@H](Cc2ccc(C(=N)N)cc2)C(=O)N[C@@H](Cc2ccccc2)C(=O)NCC(=O)N(C)CC(=O)N1C
B10: Peptide No. 258 (peptide)
peptide: RF[Pen]TG[Phe(4-NH2)]FG[Sar][NMeL]YPC-NH2
modifications: disulfide 3-13; N-terminus assumed
SMILES: CC(C)C[C@H]1C(=O)N[C@@H](Cc2ccc(O)cc2)C(=O)N2CCC[C@H]2C(=O)N[C@H](C(N)=O)CSSC(C)(C)[C@H](NC(=O)[C@H](Cc2ccccc2)NC(=O)[C@@H](N)CCCNC(=N)N)C(=O)N[C@@H]([C@@H](C)O)C(=O)NCC(=O)N[C@@H](Cc2ccc(N)cc2)C(=O)N[C@@H](Cc2ccccc2)C(=O)NCC(=O)N(C)CC(=O)N1C
B11: Peptide No. 66 (peptide)
peptide: QRFCTGHFGGLXPCNGP
modifications: Pen 4; 2-pyridylAla 12 (printed 2-pvridylAla); disulfide 4-14; C-terminal amide
B12: Peptide No. 259 (peptide)
peptide: RF[Pen]TG[His(Me)]FGGLYPC-NH2
modifications: disulfide 3-13
B13: Peptide No. 260 (peptide)
peptide: RF[Pen]TG[His(Me)2]FGGLYPC-NH2
modifications: disulfide 3-13

How the values were obtained:
[1] = target: T1, soluble human FcRn (shFcRn) (human, UniProt P55899 24-297; P61769 21-119); assay: SPR pH 6
T1 construct: Biotinylated for the ELISA, amine-coupled to a CM5 chip for SPR; also called biotinylated shFcRn
T1 sequence (P55899 24-297 limits assumed, chain 1 of 2): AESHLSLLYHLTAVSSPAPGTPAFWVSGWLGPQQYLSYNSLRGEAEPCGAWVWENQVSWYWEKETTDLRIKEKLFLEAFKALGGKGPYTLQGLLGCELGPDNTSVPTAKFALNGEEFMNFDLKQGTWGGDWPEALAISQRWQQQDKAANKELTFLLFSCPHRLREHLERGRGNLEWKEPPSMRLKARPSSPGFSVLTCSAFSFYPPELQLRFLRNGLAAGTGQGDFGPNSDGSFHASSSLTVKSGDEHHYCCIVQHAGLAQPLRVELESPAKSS
T1 sequence (P61769 21-119 limits assumed, chain 2 of 2): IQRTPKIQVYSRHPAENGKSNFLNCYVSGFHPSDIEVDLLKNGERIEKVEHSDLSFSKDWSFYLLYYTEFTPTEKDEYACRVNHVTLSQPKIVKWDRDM
Method: (§1) The following steps were performed to cross-link soluble human or cynomolgus FcRn to the dextran surface of a CM5 sensor chip (Biacore AB, Uppsala, Sweden) by an amine coupling reaction involving 1-ethyl-(3-dimethylaminopropyl)-carbodiimide hydrochloride (EDC) (Biacore AB, Uppsala, Sweden) and N-hydroxysuccinimide (NHS) (Biacore AB, Uppsala, Sweden) as recommended by Biacore (BIAapplications Handbook, version AB, section 4.2, Biacore AB, Uppsala, Sweden). […] Residual sites on the FcRn flow cell were blocked with 1 M ethanolamine hydrochloride pH 8.5 (Biacore AB, Uppsala, Sweden). A control flow cell was blocked with ethanolamine for reference subtraction. For analysis of the monomeric peptides, FcRn was coated to a final density of 4000-5000 response units (RU). For analysis of the peptide dimers, FcRn was coated to a density of 2000-2500 RU. All SPR measurements were performed using a BIACORE 3000 Instrument (Biacore AB Uppsala, Sweden). For measurements done at either pH 6 or pH 7.4, experiments were performed in 50 mM phosphate, 100 mM sodium chloride, 0.01% surfactant P20 (Biacore AB, Uppsala, Sweden).
(§2) Ten, 2-fold dilutions of the peptide were injected over the FcRn-CM5 chip at a rate of 20 μl/min for 2 min. The peptide was dissociated from the chip for 2.5 minutes with buffer. Any remaining peptide was removed from the chip with a 30 second injection of HBS-P buffer (Biacore AB, Uppsala, Sweden) at a rate of 30 μl/min. Sensorgrams were generated and analyzed using BiaEval software version 3.1 (Biacore AB, Uppsala, Sweden). The equilibrium RU observed for each injection was plotted against concentration. The equilibrium KD values were derived by analysis of the plots using the steady state affinity model included in the BiaEval software.

[2] = target: T1, soluble human FcRn (shFcRn); assay: IgG competition ELISA
Method: (§3) The wells were coated with 100 μl/well of 1 μg/ml biotinylated-shFcRn in Buffer A. The plate was sealed and incubated at 37° C. for 2 hours. Afterwards, the plate was washed with 200 μl/well of Buffer B (Buffer B: 100 mM MES pH 6, 150 mM NaCl, 0.5% BSA IgG-free (Jackson ImmunoResearch, West Grove, Pa.), 0.05% Tween-20). […] To allow for mixing, the plate was rocked for 2 minutes, sealed and incubated at 37° C. for 2 hours. […] The plate was covered, incubated for 30 minutes at room temperature and washed 4 times with 200 μl/well of ice-cold buffer B. SureBlue TMB substrate solution (100 μl/well, KPL, Gaithersburg, Md.) was added and the plate was allowed to incubate at room temperature until color developed, which took 5 to 10 minutes. Once color developed, 100 μl/well of TMB stop solution (KPL, Gaithersburg, Md.) was added and the absorbance was measured at 450 nm. The data was plotted as absorbance vs. peptide concentration to derive the inhibitory concentration 50% (IC₅₀) values.

[3] = target: T1, soluble human FcRn (shFcRn); assay: SPR pH 6; remark: listed apart in the source
Method: as §1, §2

[4] = target: T1, soluble human FcRn (shFcRn); assay: IgG competition ELISA; remark: listed apart in the source
Method: as §3

[5] = target: T1, soluble human FcRn (shFcRn); assay: SPR pH 6; remark: listed apart in the source
Method: as §1, §2

[6] = target: T1, soluble human FcRn (shFcRn); assay: IgG competition ELISA; remark: listed apart in the source
Method: as §3

[7] = target: T1, soluble human FcRn (shFcRn); assay: SPR pH 6; remark: listed apart in the source
Method: as §1, §2

[8] = target: T1, soluble human FcRn (shFcRn); assay: SPR pH 7.4
Method: as §1, §2

[9] = target: T1, soluble human FcRn (shFcRn); assay: IgG competition ELISA; remark: listed apart in the source
Method: as §3

[10] = target: T1, soluble human FcRn (shFcRn); assay: IgG competition ELISA; remark: listed apart in the source
Method: as §3

| Binder | Kd [7] | Kd [8] | IC50 [9] | other results |
| --- | --- | --- | --- | --- |
| B1 |  |  |  | Kd [1]: 340 nM; IC50 [2]: 3400 nM |
| B2 |  |  |  | IC50 [2]: 1000 nM |
| B3 |  |  |  | Kd [3]: 2000 nM |
| B4 |  |  |  | IC50 [4]: 900 nM |
| B5 |  |  |  | Kd [3]: 31 nM; Kd [5]: 31 nM |
| B6 |  |  |  | Kd [5]: 580 nM; IC50 [6]: 6400 nM |
| B7 | 1300 nM | 1100 nM | 40000 nM |  |
| B8 | 500 nM | 500 nM | 5500 nM |  |
| B9 | 74 nM | 73 nM |  |  |
| B10 |  | 1100 nM | 4600 nM |  |
| B11 |  |  |  | IC50 [10]: > 125000 nM |
| B12 | 140 nM | 380 nM | 2900 nM |  |
| B13 | 190 nM | 460 nM | 4400 nM |  |

From patent publication US20110059889A1 (SYNTONIX PHARMACEUTICALS, published 2011)
